# Assay results from patent US20240294613A1 (BROAD INSTITUTE, published 2024).
# B1: BG7-15 (antibody, V domains shown)
# VH: QVQLVQSGAEVKKPGASVKVSCKASGYTFTSYAISWVRQAPGQGLEWMGWVSAYNGNTNYAQKLQGRVTMTTDTSTNTAYMELRSLRSDDTAIYYCAIPYSSVTFDCWGQGTLVTVSS
# VL: EIVLTQSPGTLSLSPGERATLSCRASQSVSGTFLAWYQQKPGQAPRLLISGASSRATGIPDRFSGSGSGTDFTLTISRLEPEDFAVYYCQQYGSSRPTFGQGTKLEIKR
# B2: BG7-18 (antibody, V domains shown)
# VH: EVQLMESGGGLIQPGGSLRLSCAASGFIVSSNYMSWVRQAPGKGLEWVSVIYSGGGTDYADSVKGRFTISRDNSKNTLFLQMNSLRAEDTAVYYCARGAAMVKELFDYWGQGTQVTVSS
# VL: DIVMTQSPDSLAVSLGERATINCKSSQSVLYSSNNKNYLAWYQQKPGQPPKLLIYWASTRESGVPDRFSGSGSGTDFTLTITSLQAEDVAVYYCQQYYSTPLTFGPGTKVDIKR
# Target: SARS-COV-2 spike on authentic SARS-COV-2 virus (SARS-COV-2, UniProt P0DTC2 14-1273)
# Assay: cell-based or functional assay
row,Binder,LV IC50
1,B1,0.114 µg/mL
2,B2,0.115 µg/mL
